Laboratory results from IntAct's records for PubMed 23108047.

B1: Coiled-coil domain-containing protein 6 (Homo sapiens), Q16204 (parent)
chain: MADSASESDTDGAGGNSSSSAAMQSSCSSTSGGGGGGGGGGGGGKSGGIVISPFRLEELTNRLASLQQENKVLKIELETYKLKCKALQEENRDLRKASVTIQARAEQEEEFISNTLFKKIQALQKEKETLAVNYEKEEEFLTNELSRKLMQLQHEKAELEQHLEQEQEFQVNKLMKKIKKLENDTISKQLTLEQLRREKIDLENTLEQEQEALVNRLWKRMDKLEAEKRILQEKLDQPVSAPPSPRDISMEIDSPENMMRHIRFLKNEVERLKKQLRAAQLQHSEKMAQYLEEERHMREENLRLQRKLQREMERREALCRQLSESESSLEMDDERYFNEMSAQGLRPRTVSSPIPYTPSPSSSRPISPGLSYASHTVGFTPPTSLTRAGMSYYNSPGLHVQHMGTSHGITRPSPRRSNSPDKFKRPTPPPSPNTQTPVQPPPPPPPPPMQPTVPSAATSQPTPSQHSAHPSSQP

What was measured:
Conditions in all cases: with fbxw7_human FBXW7, Q969H0
[1] = variants of: B1
[2] = variants of: B1; remark: listed apart in the source
[3] = variants of: B1; remark: listed apart in the source
[4] = variants of: B1; remark: listed apart in the source
[5] = variants of: B1; remark: listed apart in the source

Sequence of fbxw7_human FBXW7, Q969H0 (Q969H0 whole entry): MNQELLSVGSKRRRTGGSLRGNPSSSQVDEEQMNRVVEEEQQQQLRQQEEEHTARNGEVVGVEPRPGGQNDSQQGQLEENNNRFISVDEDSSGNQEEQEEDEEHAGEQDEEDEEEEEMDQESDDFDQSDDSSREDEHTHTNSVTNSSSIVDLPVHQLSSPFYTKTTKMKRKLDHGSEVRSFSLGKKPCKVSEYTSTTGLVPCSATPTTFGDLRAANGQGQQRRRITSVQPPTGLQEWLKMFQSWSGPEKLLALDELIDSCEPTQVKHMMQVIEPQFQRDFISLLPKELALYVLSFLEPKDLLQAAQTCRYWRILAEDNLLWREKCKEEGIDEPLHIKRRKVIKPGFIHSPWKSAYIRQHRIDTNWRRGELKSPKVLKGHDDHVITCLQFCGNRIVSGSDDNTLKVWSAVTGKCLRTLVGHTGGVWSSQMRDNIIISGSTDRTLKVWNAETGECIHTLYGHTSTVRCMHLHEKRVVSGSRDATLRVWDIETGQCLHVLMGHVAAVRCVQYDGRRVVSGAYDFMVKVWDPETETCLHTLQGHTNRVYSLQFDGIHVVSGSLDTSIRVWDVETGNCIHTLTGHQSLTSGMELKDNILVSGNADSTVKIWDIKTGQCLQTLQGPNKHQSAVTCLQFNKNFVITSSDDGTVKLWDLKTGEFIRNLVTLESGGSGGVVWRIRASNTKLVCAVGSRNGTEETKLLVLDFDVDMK

| effect of a mutation on the interaction [1] | effect of a mutation on the interaction [2] | effect of a mutation on the interaction [3] | effect of a mutation on the interaction [4] | effect of a mutation on the interaction [5] | Variant |
| --- | --- | --- | --- | --- | --- |
| disrupting interaction | decreasing interaction |  |  |  | MADSASESDTDGAGGNSSSSAAMQSSCSSTSGGGGGGGGGGGGGKSGGIVISPFRLEELTNRLASLQQENKVLKIELETYKLKCKALQEENRDLRKASVTIQARAEQEEEFISNTLFKKIQALQKEKETLAVNYEKEEEFLTNELSRKLMQLQHEKAELEQHLEQEQEFQVNKLMKKIKKLENDTISKQLTLEQLRREKIDLENTLEQEQEALVNRLWKRMDKLEAEKRILQEKLDQPVSAPPSPRDISMEIDSPENMMRHIRFLKNEVERLKKQLRAAQLQHSEKMAQYLEEERHMREENLRLQRKLQREMERREALCRQLSESESSLEMDDERYFNEMSAQGLRPRTVSSPIPYTPAPSSSRPISPGLSYASHTVGFTPPTSLTRAGMSYYNSPGLHVQHMGTSHGITRPSPRRSNSPDKFKRPTPPPSPNTQTPVQPPPPPPPPPMQPTVPSAATSQPTPSQHSAHPSSQP [S359A] |
| disrupting interaction |  | decreasing interaction |  |  | MADSASESDTDGAGGNSSSSAAMQSSCSSTSGGGGGGGGGGGGGKSGGIVISPFRLEELTNRLASLQQENKVLKIELETYKLKCKALQEENRDLRKASVTIQARAEQEEEFISNTLFKKIQALQKEKETLAVNYEKEEEFLTNELSRKLMQLQHEKAELEQHLEQEQEFQVNKLMKKIKKLENDTISKQLTLEQLRREKIDLENTLEQEQEALVNRLWKRMDKLEAEKRILQEKLDQPVSAPPSPRDISMEIDSPENMMRHIRFLKNEVERLKKQLRAAQLQHSEKMAQYLEEERHMREENLRLQRKLQREMERREALCRQLSESESSLEMDDERYFNEMSAQGLRPRTVSSPIPYTPSPSSSRPISPGLSYASHTVGFTPPTSLTRAGMSYYNSPGLHVQHMGTSHGITRPAPRRSNSPDKFKRPTPPPSPNTQTPVQPPPPPPPPPMQPTVPSAATSQPTPSQHSAHPSSQP [S413A] |
| disrupting interaction |  |  | decreasing interaction |  | MADSASESDTDGAGGNSSSSAAMQSSCSSTSGGGGGGGGGGGGGKSGGIVISPFRLEELTNRLASLQQENKVLKIELETYKLKCKALQEENRDLRKASVTIQARAEQEEEFISNTLFKKIQALQKEKETLAVNYEKEEEFLTNELSRKLMQLQHEKAELEQHLEQEQEFQVNKLMKKIKKLENDTISKQLTLEQLRREKIDLENTLEQEQEALVNRLWKRMDKLEAEKRILQEKLDQPVSAPPSPRDISMEIDSPENMMRHIRFLKNEVERLKKQLRAAQLQHSEKMAQYLEEERHMREENLRLQRKLQREMERREALCRQLSESESSLEMDDERYFNEMSAQGLRPRTVSSPIPYTPSPSSSRPISPGLSYASHTVGFTPPTSLTRAGMSYYNSPGLHVQHMGTSHGITRPSPRRSNSPDKFKRPAPPPSPNTQTPVQPPPPPPPPPMQPTVPSAATSQPTPSQHSAHPSSQP [T427A] |
|  |  |  |  | disrupting interaction | MADSASESDTDGAGGNSSSSAAMQSSCSSTSGGGGGGGGGGGGGKSGGIVISPFRLEELTNRLASLQQENKVLKIELETYKLKCKALQEENRDLRKASVTIQARAEQEEEFISNTLFKKIQALQKEKETLAVNYEKEEEFLTNELSRKLMQLQHEKAELEQHLEQEQEFQVNKLMKKIKKLENDTISKQLTLEQLRREKIDLENTLEQEQEALVNRLWKRMDKLEAEKRILQEKLDQPVSAPPSPRDISMEIDSPENMMRHIRFLKNEVERLKKQLRAAQLQHSEKMAQYLEEERHMREENLRLQRKLQREMERREALCRQLSESESSLEMDDERYFNEMSAQGLRPRTVSSPIPYTPSPSSSRPISPGLSYASHTVGFTPPTSLTRAGMSYYNSPGLHVQHMGTSHGITRPSPRRSNSPDKFKRPTPPPSPNAQTPVQPPPPPPPPPMQPTVPSAATSQPTPSQHSAHPSSQP [T434A] |
